Results as given in US20190185562A1.
One block for each substance: values may come before it.

Legend:
[1] = target: gp130 expressed endogenously on IMR-32/STAT3-Luc cells (human) (UniProt P40189); test: FACS, secondary antibody alone, IMR-32/Stat3-luc cells, 1 uM hGP130.mmh present
[2] = target: gp130 expressed endogenously on IMR-32/STAT3-Luc cells (human) (UniProt P40189); test: FACS, secondary antibody alone, IMR-32/Stat3-luc cells, no hGP130.mmh
[3] = target: full length (FL) human gp130 over-expressed on HEK293/Stat3-luc/gp130-2X Sort cells (human) (UniProt P40189); test: FACS, secondary antibody alone, 293/Stat3-luc/GP130 2X sort cells
[4] = target: gp130 expressed endogenously on IMR-32/STAT3-Luc cells (human) (UniProt P40189); test: cell-based or functional assay
[5] = target: full length human GP130 (leucine at position 2 changed to valine) on HEK293/Stat3-luc/gp130-2X Sort cells (human) (UniProt P40189); test: FACS, secondary antibody only, HEK293/gp130 2X Sort cells
[6] = target: extracellular domain of human LEPR, GPI-anchored on HEK293/hLEPR-GPI cells (human) (UniProt P48357); test: FACS, secondary antibody only, HEK293/hLEPR-GPI cells, 1 µM Leptin present
[7] = target: extracellular domain of human LEPR, GPI-anchored on HEK293/hLEPR-GPI cells (human) (UniProt P48357); test: FACS, secondary antibody only, HEK293/hLEPR-GPI cells, No Leptin
[8] = target: full length human GP130 (leucine at position 2 changed to valine) on HEK293/Stat3-luc/gp130-2X Sort cells (human) (UniProt P40189); test: FACS, 200 nM antibody, HEK293/gp130 2X Sort cells
[9] = target: extracellular domain of human LEPR, GPI-anchored on HEK293/hLEPR-GPI cells (human) (UniProt P48357); test: FACS, 200 nM antibody, HEK293/hLEPR-GPI cells, No Leptin
[10] = target: extracellular domain of human LEPR, GPI-anchored on HEK293/hLEPR-GPI cells (human) (UniProt P48357); test: FACS, 200 nM antibody, HEK293/hLEPR-GPI cells, 1 µM Leptin present

Chain of extracellular domain of human LEPR, GPI-anchored on HEK293/hLEPR-GPI cells (human) (P48357 22-839 limits assumed): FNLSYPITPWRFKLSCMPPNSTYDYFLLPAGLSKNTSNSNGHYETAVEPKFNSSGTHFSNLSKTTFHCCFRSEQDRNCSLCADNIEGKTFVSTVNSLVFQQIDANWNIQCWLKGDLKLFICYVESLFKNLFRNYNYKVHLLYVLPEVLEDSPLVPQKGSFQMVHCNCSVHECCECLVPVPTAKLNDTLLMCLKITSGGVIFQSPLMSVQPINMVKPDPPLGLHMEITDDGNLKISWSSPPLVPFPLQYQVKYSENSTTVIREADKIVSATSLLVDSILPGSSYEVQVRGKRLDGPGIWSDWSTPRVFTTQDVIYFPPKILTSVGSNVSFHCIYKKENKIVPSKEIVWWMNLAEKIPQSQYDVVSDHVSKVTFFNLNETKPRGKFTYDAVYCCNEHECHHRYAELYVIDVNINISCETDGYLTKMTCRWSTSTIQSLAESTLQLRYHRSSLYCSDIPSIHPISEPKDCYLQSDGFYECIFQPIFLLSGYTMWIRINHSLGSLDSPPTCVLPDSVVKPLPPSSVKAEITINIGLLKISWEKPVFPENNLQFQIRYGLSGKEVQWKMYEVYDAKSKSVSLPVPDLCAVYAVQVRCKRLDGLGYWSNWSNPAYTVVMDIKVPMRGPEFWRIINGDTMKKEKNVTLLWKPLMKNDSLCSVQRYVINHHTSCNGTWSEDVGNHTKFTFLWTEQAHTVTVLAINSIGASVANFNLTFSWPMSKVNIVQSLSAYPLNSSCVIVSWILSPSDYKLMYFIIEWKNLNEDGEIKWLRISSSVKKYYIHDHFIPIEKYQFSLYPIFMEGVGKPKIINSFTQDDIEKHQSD
Chain of gp130 expressed endogenously on IMR-32/STAT3-Luc cells (human) (P40189 23-918): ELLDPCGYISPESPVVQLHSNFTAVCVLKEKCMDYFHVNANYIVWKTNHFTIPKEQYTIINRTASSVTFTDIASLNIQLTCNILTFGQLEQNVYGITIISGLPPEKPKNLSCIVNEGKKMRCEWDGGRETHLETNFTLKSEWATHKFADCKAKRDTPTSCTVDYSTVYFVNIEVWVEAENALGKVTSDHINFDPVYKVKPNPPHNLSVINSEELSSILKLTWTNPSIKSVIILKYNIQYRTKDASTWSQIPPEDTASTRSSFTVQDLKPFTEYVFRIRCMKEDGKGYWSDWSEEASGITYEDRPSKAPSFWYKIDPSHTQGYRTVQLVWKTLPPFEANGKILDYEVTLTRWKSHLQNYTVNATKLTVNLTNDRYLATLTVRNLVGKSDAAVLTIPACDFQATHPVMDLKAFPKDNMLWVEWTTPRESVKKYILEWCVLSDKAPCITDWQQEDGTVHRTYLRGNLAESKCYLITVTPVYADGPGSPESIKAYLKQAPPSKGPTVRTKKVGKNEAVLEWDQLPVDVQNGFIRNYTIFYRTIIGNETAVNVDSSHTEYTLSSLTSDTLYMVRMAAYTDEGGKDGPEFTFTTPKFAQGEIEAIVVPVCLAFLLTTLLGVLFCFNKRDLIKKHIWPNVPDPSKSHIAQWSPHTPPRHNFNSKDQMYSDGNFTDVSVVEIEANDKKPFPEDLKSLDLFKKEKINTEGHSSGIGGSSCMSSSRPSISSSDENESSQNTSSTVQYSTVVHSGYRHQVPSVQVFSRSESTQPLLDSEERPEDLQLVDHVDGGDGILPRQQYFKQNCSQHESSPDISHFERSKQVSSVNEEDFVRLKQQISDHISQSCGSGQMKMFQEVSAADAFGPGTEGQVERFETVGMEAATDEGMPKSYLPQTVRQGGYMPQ
Chain of full length human GP130 (leucine at position 2 changed to valine) on HEK293/Stat3-luc/gp130-2X Sort cells (human) (P40189 23-918): as above
Chain of full length (FL) human gp130 over-expressed on HEK293/Stat3-luc/gp130-2X Sort cells (human) (P40189 23-918): as above

- MFI - Normalized to Unstained Control [1]: 8
- MFI - Normalized to Unstained Control [2]: 4
- MFI - Normalized to Unstained Control [3]: 2
Substance: a-h 2″ alone (antibody)

- EC50 of activation of IMR-32/STAT3-luc cells (STAT3-luciferase) [4]: 23 pM
Substance: human Leukemia Inhibitory Factor (from UniProt P15018 23-202) (ligand)

- Binding Ratio: Normalized to Unstained Sample of Each Cell Line (FL4-A) [5]: 1
- Binding Ratio: Normalized to Unstained Sample of Each Cell Line (FL4-A) [6]: 2
- Binding Ratio: Normalized to Unstained Sample of Each Cell Line (FL4-A) [7]: 3
Substance: Secondary antibody alone

- Binding Ratio: Normalized to Unstained Sample of Each Cell Line (FL4-A) [8]: 2
- Binding Ratio: Normalized to Unstained Sample of Each Cell Line (FL4-A) [9]: 3
- Binding Ratio: Normalized to Unstained Sample of Each Cell Line (FL4-A) [10]: 3
Substance: Isotype Control (antibody)
